Measurements published in patent US20260242485A1 (LEPU BIOPHARMA, published 2026).
Values belong to the binder of their own block, whether it stands above or below them.

Key:
[1] = target: T1, cynomolgus CD16 expressed on CHO-K1 cells (cynomolgus, UniProt Q8SPW2 17-254); test: flow cytometry, CHO-K1-cyno CD16 cells, Alexa Fluor 647 anti-human IgG Fc, geometric mean
T1 construct: whole, on cells; also called cyno CD16; CHO-K1-cynoCD16
Procedure: (§1) In order to evaluate the binding activity of the chimeric mAbs to human CD16A expressed on cells, cell-based binding assay was employed as followed. […] The antibody dilutions were incubated with 1×10⁵ indicated cells in the 96-well microplate for one hour at 4° C. The antibodies binding to the antigen on the cell surface were detected with PE fluorophore-conjugated anti-human IgG Fc secondary antibodies (ThermoFisher scientific, Cat. No. 12-4998-82) at a dilution rate of 1:1000. Cells were analyzed by flow cytometer LSRFortessa Cell Analyzer (BD Biosciences). Data were analyzed with Flowjo 10.0 software. The graph and statistics analysis were generated with four-parameter nonlinear regression curve fit in Graphpad Prism 9 software.
(§2) The assay was performed following the protocol described above. The antibodies binding to the antigen on the cell surface were detected with Alexa Fluor® 647 AffiniPure™ F(ab′)₂ fragment goat anti-human IgG Fcγ fragment specific secondary antibody (Jackson Immuno Research, Cat. No. 109-606-098) at a dilution rate of 1:2000.

[2] = target: T2, human CD16A-158F expressed on CHO-K1 cells (human, UniProt P08637 17-254); test: flow cytometry, CHO-K1-hCD16A-158F cells, Alexa Fluor 647 anti-human IgG Fc, geometric mean
T2 construct: whole, on cells
T2 sequence (P08637 17-254): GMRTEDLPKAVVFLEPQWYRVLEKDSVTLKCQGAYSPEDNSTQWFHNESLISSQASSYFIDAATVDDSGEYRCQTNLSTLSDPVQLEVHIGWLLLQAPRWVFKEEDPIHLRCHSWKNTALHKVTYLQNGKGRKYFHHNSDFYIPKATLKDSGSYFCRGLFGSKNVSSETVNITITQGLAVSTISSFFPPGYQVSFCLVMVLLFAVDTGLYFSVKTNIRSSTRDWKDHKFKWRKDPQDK
Procedure: as §1, §2

[3] = target: T3, human CD16A-158V expressed on CHO-K1 cells (human, UniProt P08637 17-254); test: flow cytometry, CHO-K1-hCD16A-158V cells, Alexa Fluor 647 anti-human IgG Fc, geometric mean
T3 construct: whole, on cells; also called hCD16A-158V; CHO-K1-hCD16A-158V
T3 sequence (P08637 17-254 F176V): as the sequence (P08637 17-254) above, with F160V counted along it
Procedure: as §1, §2

[4] = target: T4, human CD16B-NA1 expressed on CHO-K1 cells (human, UniProt O75015 17-200); test: flow cytometry, CHO-K1-hCD16B-NA1 cells, Alexa Fluor 647 anti-human IgG Fc, geometric mean
T4 construct: whole, on cells; also called hCD16B-NA1; CHO-K1-hCD16B-NA1
T4 sequence (O75015 other isoform, or with tags, fused parts or gaps): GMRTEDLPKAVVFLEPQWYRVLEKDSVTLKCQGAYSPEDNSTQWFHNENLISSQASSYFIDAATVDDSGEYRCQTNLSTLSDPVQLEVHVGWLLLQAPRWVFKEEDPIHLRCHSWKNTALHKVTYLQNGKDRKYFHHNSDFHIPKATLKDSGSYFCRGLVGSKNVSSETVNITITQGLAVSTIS
Procedure: as §1, §2

[5] = target: T5, human CD32B expressed on CHO-K1 cells (human, UniProt P31994 43-310); test: flow cytometry, CHO-K1-hCD32B cells, geometric mean
T5 construct: whole, on cells; also called hCD32B
T5 sequence (looked up): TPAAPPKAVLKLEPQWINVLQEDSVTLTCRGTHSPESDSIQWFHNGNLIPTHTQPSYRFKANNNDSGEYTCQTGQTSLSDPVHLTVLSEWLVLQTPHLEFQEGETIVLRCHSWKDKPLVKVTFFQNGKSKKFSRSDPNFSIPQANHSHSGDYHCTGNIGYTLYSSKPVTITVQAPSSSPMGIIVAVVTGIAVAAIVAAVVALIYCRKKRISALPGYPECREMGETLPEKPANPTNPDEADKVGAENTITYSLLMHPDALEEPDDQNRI
Text: (§3) The purpose of the assay was to evaluate the binding of BsAb to each of the hFcγRs.

[6] = target: T3, human CD16A-158V expressed on CHO-K1 …; test: flow cytometry, CHO-K1-hCD16A-158V cells, geometric mean
Text: as §3

[7] = target: T2, human CD16A-158F expressed on CHO-K1 …; test: flow cytometry, CHO-K1-hCD16A-158F cells, geometric mean
Text: as §3

[8] = target: T6, human GPC3 on HepG2 cells (human, UniProt P51654 25-554); test: flow cytometry, HepG2 cells (GPC3 positive), geometric mean
T6 construct: whole, on cells; also called GPC3-positive HepG2 cells
T6 sequence (P51654 25-554 limits assumed): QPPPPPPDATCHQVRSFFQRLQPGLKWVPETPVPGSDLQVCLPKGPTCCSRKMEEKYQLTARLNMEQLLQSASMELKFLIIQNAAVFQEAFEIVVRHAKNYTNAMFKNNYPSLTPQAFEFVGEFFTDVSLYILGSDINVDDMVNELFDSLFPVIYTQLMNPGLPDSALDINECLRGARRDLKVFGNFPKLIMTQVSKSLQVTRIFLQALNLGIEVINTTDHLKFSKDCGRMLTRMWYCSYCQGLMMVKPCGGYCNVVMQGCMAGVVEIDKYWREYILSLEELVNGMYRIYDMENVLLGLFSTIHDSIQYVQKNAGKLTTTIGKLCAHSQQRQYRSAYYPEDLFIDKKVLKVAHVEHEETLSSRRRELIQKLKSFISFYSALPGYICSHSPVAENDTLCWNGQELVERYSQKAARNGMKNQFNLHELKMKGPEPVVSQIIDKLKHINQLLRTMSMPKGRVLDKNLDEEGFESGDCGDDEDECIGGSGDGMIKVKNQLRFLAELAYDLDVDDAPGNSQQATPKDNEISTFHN

[9] = target: T2, human CD16A-158F expressed on CHO-K1 …; test: flow cytometry, CHO-K1-hCD16A-158F cells, geometric mean; remark: listed apart in the source
[10] = target: T3, human CD16A-158V expressed on CHO-K1 …; test: flow cytometry, CHO-K1-hCD16A-158V cells, geometric mean; remark: listed apart in the source

T1 sequence (Q8SPW2 17-254): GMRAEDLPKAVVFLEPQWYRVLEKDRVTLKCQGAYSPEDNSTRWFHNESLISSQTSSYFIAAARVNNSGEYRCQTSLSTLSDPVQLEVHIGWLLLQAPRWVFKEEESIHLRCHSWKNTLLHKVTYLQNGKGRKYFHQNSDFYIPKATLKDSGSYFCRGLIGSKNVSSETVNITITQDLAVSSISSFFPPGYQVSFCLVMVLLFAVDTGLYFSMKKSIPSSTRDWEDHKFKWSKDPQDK

B1: 45H6E8-z13 (antibody, V domains shown)
VH: QVQLVQSGAEVKKPGASVKVSCKVSGYTLTDYYMQWVRQAPGKGLEWMGWIDPENGDTEYAPKFQGRVTMTEDTSTDTAYMELSSLRSEDTAVYYCATGGNYVDWGQGTTVTVSS
VL: DIQMTQSPSFLSASVGDRVTITCKASQNVGTAVAWYQQKPGKAPKLLIYSASNRYTGVPDRFSGSGSGTDFTLTISSLQPEDFATYFCQQYSSYPLLTFGQGTRLEIK
notes: also called HU-VH1-1 / HU-VL1-3
EC50 (read off the curve) [1]: ~1000 pM
EC50 (read off the curve) [2]: ~400 pM
EC50 (read off the curve) [3]: ~400 pM
binding result [4]: no binding (tested: 100 nM)

B3: CCR8-hIgG1DE (antibody)
heavy chain: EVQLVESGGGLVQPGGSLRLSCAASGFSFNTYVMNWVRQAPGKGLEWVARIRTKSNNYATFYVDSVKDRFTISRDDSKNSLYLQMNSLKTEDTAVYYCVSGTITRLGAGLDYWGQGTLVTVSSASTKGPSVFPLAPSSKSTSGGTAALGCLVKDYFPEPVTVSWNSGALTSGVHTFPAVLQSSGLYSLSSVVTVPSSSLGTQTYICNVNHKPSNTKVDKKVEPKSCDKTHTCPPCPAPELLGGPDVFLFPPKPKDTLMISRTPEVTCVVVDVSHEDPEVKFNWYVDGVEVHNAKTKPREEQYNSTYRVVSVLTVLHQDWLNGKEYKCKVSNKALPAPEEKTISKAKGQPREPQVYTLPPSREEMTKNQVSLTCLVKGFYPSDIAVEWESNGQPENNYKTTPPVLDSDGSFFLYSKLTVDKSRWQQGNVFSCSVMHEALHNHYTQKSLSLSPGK
light chain: DIVMTQSPLSLPVTPGEPASISCRSSKSLLHSNANTYLYWYLQKPGQSPQLLIYRMSNLASGVPDRFSGSGSGTAFTLKISRVEAEDVGVYYCMQHLEYPFTFGGGTKLEIKRTVAAPSVFIFPPSDEQLKSGTASVVCLLNNFYPREAKVQWKVDNALQSGNSQESVTEQDSKDSTYSLSSTLTLSKADYEKHKVYACEVTHQGLSSPVTKSFNRGEC
notes: also called eADCC CCR8 mAb with Fc-DE (S239D/I332E)
binding result [5]: binds
EC50 [6]: 800 pM
EC50 [7]: 1400 pM

B7: GPC3-45H6E8-z19p1-hIgG1LALAPG (bispecific antibody)
heavy chain (anti-GPC3 heavy chain hIgG1 LALAPG, (G4S)4 linker, 45H6E8-z19p1 scFv): QVQLVQSGAEVKKPGASVKVSCKASGYTFTDYEMHWVRQAPGQGLEWMGAIHPGSGGTAYNQKFKGRVTMTRDTSTSTVYMELSSLRSEDTAVYYCARYYSYAYWGQGTLVTVSSASTKGPSVFPLAPSSKSTSGGTAALGCLVKDYFPEPVTVSWNSGALTSGVHTFPAVLQSSGLYSLSSVVTVPSSSLGTQTYICNVNHKPSNTKVDKKVEPKSCDKTHTCPPCPAPEAAGGPSVFLFPPKPKDTLMISRTPEVTCVVVDVSHEDPEVKFNWYVDGVEVHNAKTKPREEQYNSTYRVVSVLTVLHQDWLNGKEYKCKVSNKALGAPIEKTISKAKGQPREPQVYTLPPSREEMTKNQVSLTCLVKGFYPSDIAVEWESNGQPENNYKTTPPVLDSDGSFFLYSKLTVDKSRWQQGNVFSCSVMHEALHNHYTQKSLSLSPGKGGGGSGGGGSGGGGSGGGGSQVQLVQSGAEVKKPGASVKVSCKVSGYTLTDYYMQWVRQAPGKGLEWIGWIDPEQGDTEYAPKFQGRVTMTADTSTDTAYMELSSLRSEDTAVYYCTTGGNYVDWGQGTTVTVSSGGGGSGGGGSGGGGSDIQMTQSPSFLSASVGDRVTITCKASQNVGTAVAWYQQKPGKAPKLLIYSASNRYTGVPDRFSGSGSGTDFTLTISSLQPEDFATYFCQQYSSYPLLTFGQGTRLEIK
light chain: DIVMTQTPLSLSVTPGQPASISCRSSQSLVHSNGNTYLQWYLQKPGQSPQLLIYKVSNRFSGVPDRFSGSGSGTDFTLKISRVEAEDVGVYYCFQSIHVPYTFGGGTKLEIKRTVAAPSVFIFPPSDEQLKSGTASVVCLLNNFYPREAKVQWKVDNALQSGNSQESVTEQDSKDSTYSLSSTLTLSKADYEKHKVYACEVTHQGLSSPVTKSFNRGEC
EC50 (read off the curve) [8]: ~300 pM
EC50 (read off the curve) [9]: ~2000 pM
EC50 (read off the curve) [10]: ~1000 pM

B8: GPC3-45H6E8-z21p1-hIgG1LALAPG (bispecific antibody)
heavy chain (anti-GPC3 heavy chain hIgG1 LALAPG, (G4S)4 linker, 45H6E8-z21p1 scFv): QVQLVQSGAEVKKPGASVKVSCKASGYTFTDYEMHWVRQAPGQGLEWMGAIHPGSGGTAYNQKFKGRVTMTRDTSTSTVYMELSSLRSEDTAVYYCARYYSYAYWGQGTLVTVSSASTKGPSVFPLAPSSKSTSGGTAALGCLVKDYFPEPVTVSWNSGALTSGVHTFPAVLQSSGLYSLSSVVTVPSSSLGTQTYICNVNHKPSNTKVDKKVEPKSCDKTHTCPPCPAPEAAGGPSVFLFPPKPKDTLMISRTPEVTCVVVDVSHEDPEVKFNWYVDGVEVHNAKTKPREEQYNSTYRVVSVLTVLHQDWLNGKEYKCKVSNKALGAPIEKTISKAKGQPREPQVYTLPPSREEMTKNQVSLTCLVKGFYPSDIAVEWESNGQPENNYKTTPPVLDSDGSFFLYSKLTVDKSRWQQGNVFSCSVMHEALHNHYTQKSLSLSPGKGGGGSGGGGSGGGGSGGGGSQVQLVQSGAEVKKPGASVKVSCKVSGYTLTDYYMQWVRQAPGKGLEWMGWIDPEQGDTEYAPKFQGRVTMTADTSTDTAYMELSSLRSEDTAVYYCTTGGNYVDWGQGTTVTVSSGGGGSGGGGSGGGGSDIQMTQSPSFLSASVGDRVTITCKASQNVGTAVAWYQQKPGKAPKLLIYSASNRYTGVPDRFSGSGSGTDFTLTISSLQPEDFATYFCQQYSSYPLLTFGQGTRLEIK
light chain: DIVMTQTPLSLSVTPGQPASISCRSSQSLVHSNGNTYLQWYLQKPGQSPQLLIYKVSNRFSGVPDRFSGSGSGTDFTLKISRVEAEDVGVYYCFQSIHVPYTFGGGTKLEIKRTVAAPSVFIFPPSDEQLKSGTASVVCLLNNFYPREAKVQWKVDNALQSGNSQESVTEQDSKDSTYSLSSTLTLSKADYEKHKVYACEVTHQGLSSPVTKSFNRGEC
EC50 (read off the curve) [8]: ~300 pM
EC50 (read off the curve) [9]: ~2000 pM
EC50 (read off the curve) [10]: ~1000 pM

Second part, the binder after the results:

EC50 (read off the curve) [1]: ~1000 pM
EC50 (read off the curve) [2]: ~400 pM
EC50 (read off the curve) [3]: ~400 pM
binding result [4]: no binding (tested: 100 nM)
B2: 45H6E8-z17 (antibody, human IgG1, V domains shown)
VH: QVQLVQSGAEVKKPGASVKVSCKVSGYTLKDYYMQWVRQAPGKGLEWIGWIDPENGDTEYAPKFQGKATMTADTSTDTAYMELSSLRSEDTAVYYCTTGGNYVDWGQGTTVTVSS
VL: DIQMTQSPSFLSASVGDRVTITCKASQNVGTAVAWYQQKPGKAPKLLIYSASNRYTGVPDRFSGSGSGTDFTLTISSLQPEDFATYFCQQYSSYPLLTFGQGTRLEIK
notes: Human IgG1 LALAPG constant region; also called HU-VH1-5 / HU-VL1-3

binding result [5]: binds
EC50 [6]: 100 pM
EC50 [7]: 95 pM
B4: CCR8-45H6E8-hIgG1 (bispecific antibody)
heavy: not shown
light: DIVMTQSPLSLPVTPGEPASISCRSSKSLLHSNANTYLYWYLQKPGQSPQLLIYRMSNLASGVPDRFSGSGSGTAFTLKISRVEAEDVGVYYCMQHLEYPFTFGGGTKLEIKRTVAAPSVFIFPPSDEQLKSGTASVVCLLNNFYPREAKVQWKVDNALQSGNSQESVTEQDSKDSTYSLSSTLTLSKADYEKHKVYACEVTHQGLSSPVTKSFNRGEC
notes: Format 1: anti-CCR8 IgG1 with wildtype Fc and 45H6E8 scFv at the C-terminus of each heavy chain; also called CCR8-45H6E8-hIgG1 BsAb; CCR8-45H6E8 WT BsAb

binding result [5]: binds
EC50 [6]: 450 pM
EC50 [7]: 3500 pM
B5: CCR8-hIgG1Afucosylated (antibody)
heavy: not shown
light: DIVMTQSPLSLPVTPGEPASISCRSSKSLLHSNANTYLYWYLQKPGQSPQLLIYRMSNLASGVPDRFSGSGSGTAFTLKISRVEAEDVGVYYCMQHLEYPFTFGGGTKLEIKRTVAAPSVFIFPPSDEQLKSGTASVVCLLNNFYPREAKVQWKVDNALQSGNSQESVTEQDSKDSTYSLSSTLTLSKADYEKHKVYACEVTHQGLSSPVTKSFNRGEC
modifications: chain 1 pos 303 (EU N297): the Fc N-glycan lacks core fucose (afucosylated); the letters are unchanged
notes: also called anti-hCCR8 monoclonal antibody with Fc-afucosylated; copies: 2 + 2

binding result [5]: binds
EC50 [6]: 750 pM
EC50 [7]: 1200 pM
B6: CCR8-hIgG1DLE (antibody)
heavy chain: EVQLVESGGGLVQPGGSLRLSCAASGFSFNTYVMNWVRQAPGKGLEWVARIRTKSNNYATFYVDSVKDRFTISRDDSKNSLYLQMNSLKTEDTAVYYCVSGTITRLGAGLDYWGQGTLVTVSSASTKGPSVFPLAPSSKSTSGGTAALGCLVKDYFPEPVTVSWNSGALTSGVHTFPAVLQSSGLYSLSSVVTVPSSSLGTQTYICNVNHKPSNTKVDKKVEPKSCDKTHTCPPCPAPELLGGPDVFLFPPKPKDTLMISRTPEVTCVVVDVSHEDPEVKFNWYVDGVEVHNAKTKPREEQYNSTYRVVSVLTVLHQDWLNGKEYKCKVSNKALPLPEEKTISKAKGQPREPQVYTLPPSREEMTKNQVSLTCLVKGFYPSDIAVEWESNGQPENNYKTTPPVLDSDGSFFLYSKLTVDKSRWQQGNVFSCSVMHEALHNHYTQKSLSLSPGK
light chain: DIVMTQSPLSLPVTPGEPASISCRSSKSLLHSNANTYLYWYLQKPGQSPQLLIYRMSNLASGVPDRFSGSGSGTAFTLKISRVEAEDVGVYYCMQHLEYPFTFGGGTKLEIKRTVAAPSVFIFPPSDEQLKSGTASVVCLLNNFYPREAKVQWKVDNALQSGNSQESVTEQDSKDSTYSLSSTLTLSKADYEKHKVYACEVTHQGLSSPVTKSFNRGEC
notes: also called eADCC CCR8 mAb with Fc-DLE (S239D/A330L/I332E)
